According to article PMC12510028, “A biophysical and molecular characterization of the interaction between the Alzheimer risk factor BIN1 and the neuronal scaffold protein p140Cap” (The Journal of Biological Chemistry, 2025):

System: p140Cap
Experiment: GST pull-down from mouse brain homogenate, p140Cap captured
Type: binding
Conditions: percent pulldown relative to input, two independent experiments, unpaired t test p = 0.0035
Protocol: For these experiments, we prepared glutathione S-transferase (GST) control and GST-tagged BIN1-SH3 domain fusion proteins coupled to glutathione-Sepharose and incubated them with mouse brain homogenates to capture bound proteins. Western blot analysis confirmed that p140Cap from the brain extract bound specifically to the BIN1-SH3 fusion protein, but not to the GST control (Fig. 7A).
To further investigate the contributions of electrostatic interactions in BIN1 SH3 domain–mediated protein binding, we conducted GST pull-down assays with mutant BIN1 SH3 domain constructs that lacked charged residues. […]
We used a previously published method with some modifications ([22]). […] The samples were analyzed by immunoblotting with antibodies against total tau (Dako #A0024; 1:1000) and p140Cap (Defilippi’s lab mAb; 1:2000) ([44]). After incubation with infrared dye–conjugated secondary antibodies, signals were recorded using the Odyssey infrared imaging system (LI-COR Biosciences) and quantified with ImageStudio6.0. The % GST pulldown was calculated by comparing signal intensities of p140Cap or tau in the input (10 μg) with the corresponding pull-down signal intensity from 0.5 mg protein and then multiplying by 100.

B1: BIN1-SH3 fusion protein: GST-tagged WT human BIN1-SH3 domain fusion protein coupled to glutathione-Sepharose (protein)
chain: GFMFKVQAQHDYTATDTDELQLKAGDVVLVIPFQNPEEQDEGWLMGVKESDWNQHKELEKCRGVFPENFTERVP
modifications: left off: 6xHis, N-terminal, state not stated | GST, N-terminal, kept
notes: GST-tagged WT human BIN1-SH3 domain fusion protein coupled to glutathione-Sepharose
fold more p140Cap captured than tau: ~9.4 fold
